Measured values taken from patent US20140072613A1, “Compositions and Methods for Treating Cutaneous Scarring” (priority 2012, published 2014).

Legend:
Test in all cases: biochemical
Format in all cases: biochemical
266 human kinases [1] = biological target: 266 human kinases (Homo sapiens, UniProt P09619); conditions: PDGFRβ(h); 100 μM
How it was run: (§1)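 A filter-capture radiometric assay: phosphorylated cationic substrate binds an anionic membrane and is scintillation-counted, with values referenced to full-activity control.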

266 human kinases [2] = biological target: T1, 266 human kinases (Homo sapiens, UniProt P42681); conditions: Txk(h); 100 μM
T1 sequence (P42681 1-527): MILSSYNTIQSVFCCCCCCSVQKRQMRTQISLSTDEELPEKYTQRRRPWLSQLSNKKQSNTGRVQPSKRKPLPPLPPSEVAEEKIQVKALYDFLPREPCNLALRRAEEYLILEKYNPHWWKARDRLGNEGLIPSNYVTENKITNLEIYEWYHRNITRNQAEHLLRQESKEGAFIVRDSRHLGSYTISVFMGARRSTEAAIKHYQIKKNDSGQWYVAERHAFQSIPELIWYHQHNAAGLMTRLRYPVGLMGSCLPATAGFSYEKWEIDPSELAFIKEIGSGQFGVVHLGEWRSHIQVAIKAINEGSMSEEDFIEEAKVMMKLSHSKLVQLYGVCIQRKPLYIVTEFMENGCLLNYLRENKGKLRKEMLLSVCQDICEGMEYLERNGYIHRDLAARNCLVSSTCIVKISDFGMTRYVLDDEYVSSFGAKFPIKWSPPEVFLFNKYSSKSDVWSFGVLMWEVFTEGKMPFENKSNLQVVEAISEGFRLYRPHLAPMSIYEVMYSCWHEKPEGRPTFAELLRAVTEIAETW
How it was run: as §1

266 human kinases [3] = biological target: T2, 266 human kinases (Homo sapiens, UniProt P51813); conditions: Bmx(h); 100 μM
T2 sequence (P51813 1-675): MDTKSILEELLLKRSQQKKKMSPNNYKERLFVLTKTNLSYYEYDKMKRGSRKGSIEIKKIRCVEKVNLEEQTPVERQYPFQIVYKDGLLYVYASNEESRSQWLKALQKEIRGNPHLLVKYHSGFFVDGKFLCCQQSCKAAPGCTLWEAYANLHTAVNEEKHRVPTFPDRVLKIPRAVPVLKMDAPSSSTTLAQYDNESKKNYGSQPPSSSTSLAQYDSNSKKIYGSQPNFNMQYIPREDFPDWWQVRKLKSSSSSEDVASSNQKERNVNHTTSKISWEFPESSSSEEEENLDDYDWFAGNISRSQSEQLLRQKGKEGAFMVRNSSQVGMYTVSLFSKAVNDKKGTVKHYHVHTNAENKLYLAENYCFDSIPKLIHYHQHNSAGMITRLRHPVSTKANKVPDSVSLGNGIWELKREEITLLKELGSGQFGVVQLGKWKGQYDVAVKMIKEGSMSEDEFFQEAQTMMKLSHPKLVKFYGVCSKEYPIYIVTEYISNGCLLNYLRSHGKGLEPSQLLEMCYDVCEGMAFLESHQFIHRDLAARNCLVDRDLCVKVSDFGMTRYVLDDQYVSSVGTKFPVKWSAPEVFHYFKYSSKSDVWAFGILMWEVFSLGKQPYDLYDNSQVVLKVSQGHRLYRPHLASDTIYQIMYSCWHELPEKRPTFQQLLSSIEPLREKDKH
How it was run: as §1

266 human kinases [4] = biological target: 266 human kinases (Homo sapiens, UniProt Q05397); conditions: FAK(h); 100 μM
How it was run: as §1

266 human kinases [5] = biological target: 266 human kinases (Homo sapiens, UniProt Q13555); conditions: CaMKIIγ(h); 100 μM
How it was run: as §1

266 human kinases [6] = biological target: T3, 266 human kinases (Homo sapiens, UniProt Q15831); conditions: LKB1(h); 100 μM
T3 sequence (Q15831 1-433): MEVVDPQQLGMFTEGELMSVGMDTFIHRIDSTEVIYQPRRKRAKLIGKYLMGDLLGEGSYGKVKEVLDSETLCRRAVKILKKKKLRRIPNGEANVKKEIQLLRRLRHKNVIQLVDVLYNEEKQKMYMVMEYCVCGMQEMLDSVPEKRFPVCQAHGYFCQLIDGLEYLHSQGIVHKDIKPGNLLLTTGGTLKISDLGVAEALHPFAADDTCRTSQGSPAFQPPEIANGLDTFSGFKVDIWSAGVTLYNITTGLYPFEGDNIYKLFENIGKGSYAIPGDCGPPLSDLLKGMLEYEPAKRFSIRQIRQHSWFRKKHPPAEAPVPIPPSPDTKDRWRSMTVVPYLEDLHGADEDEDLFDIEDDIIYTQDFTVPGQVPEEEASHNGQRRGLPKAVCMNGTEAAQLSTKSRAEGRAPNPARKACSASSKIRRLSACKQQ
How it was run: as §1

266 human kinases [7] = biological target: 266 human kinases (Homo sapiens, UniProt Q16566); conditions: CaMKIV(h); 100 μM
How it was run: as §1

266 human kinases (Homo sapiens, UniProt Q13555), sequence (Q13555 whole entry): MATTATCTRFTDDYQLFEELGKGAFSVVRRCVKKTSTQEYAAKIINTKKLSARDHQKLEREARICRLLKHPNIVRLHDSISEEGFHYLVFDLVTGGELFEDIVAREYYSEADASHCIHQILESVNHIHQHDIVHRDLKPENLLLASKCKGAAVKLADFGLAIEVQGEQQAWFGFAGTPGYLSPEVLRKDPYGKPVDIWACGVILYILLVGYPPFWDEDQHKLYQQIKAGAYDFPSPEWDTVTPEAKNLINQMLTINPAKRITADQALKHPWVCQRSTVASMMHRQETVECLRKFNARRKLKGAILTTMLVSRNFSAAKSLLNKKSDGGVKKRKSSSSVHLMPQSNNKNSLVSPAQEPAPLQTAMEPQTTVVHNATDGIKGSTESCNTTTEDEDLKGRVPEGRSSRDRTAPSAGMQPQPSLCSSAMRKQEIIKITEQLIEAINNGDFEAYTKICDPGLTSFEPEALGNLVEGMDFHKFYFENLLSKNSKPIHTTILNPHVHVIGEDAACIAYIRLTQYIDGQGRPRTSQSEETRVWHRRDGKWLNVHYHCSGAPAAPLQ
266 human kinases (Homo sapiens, UniProt Q05397), sequence (Q05397 whole entry): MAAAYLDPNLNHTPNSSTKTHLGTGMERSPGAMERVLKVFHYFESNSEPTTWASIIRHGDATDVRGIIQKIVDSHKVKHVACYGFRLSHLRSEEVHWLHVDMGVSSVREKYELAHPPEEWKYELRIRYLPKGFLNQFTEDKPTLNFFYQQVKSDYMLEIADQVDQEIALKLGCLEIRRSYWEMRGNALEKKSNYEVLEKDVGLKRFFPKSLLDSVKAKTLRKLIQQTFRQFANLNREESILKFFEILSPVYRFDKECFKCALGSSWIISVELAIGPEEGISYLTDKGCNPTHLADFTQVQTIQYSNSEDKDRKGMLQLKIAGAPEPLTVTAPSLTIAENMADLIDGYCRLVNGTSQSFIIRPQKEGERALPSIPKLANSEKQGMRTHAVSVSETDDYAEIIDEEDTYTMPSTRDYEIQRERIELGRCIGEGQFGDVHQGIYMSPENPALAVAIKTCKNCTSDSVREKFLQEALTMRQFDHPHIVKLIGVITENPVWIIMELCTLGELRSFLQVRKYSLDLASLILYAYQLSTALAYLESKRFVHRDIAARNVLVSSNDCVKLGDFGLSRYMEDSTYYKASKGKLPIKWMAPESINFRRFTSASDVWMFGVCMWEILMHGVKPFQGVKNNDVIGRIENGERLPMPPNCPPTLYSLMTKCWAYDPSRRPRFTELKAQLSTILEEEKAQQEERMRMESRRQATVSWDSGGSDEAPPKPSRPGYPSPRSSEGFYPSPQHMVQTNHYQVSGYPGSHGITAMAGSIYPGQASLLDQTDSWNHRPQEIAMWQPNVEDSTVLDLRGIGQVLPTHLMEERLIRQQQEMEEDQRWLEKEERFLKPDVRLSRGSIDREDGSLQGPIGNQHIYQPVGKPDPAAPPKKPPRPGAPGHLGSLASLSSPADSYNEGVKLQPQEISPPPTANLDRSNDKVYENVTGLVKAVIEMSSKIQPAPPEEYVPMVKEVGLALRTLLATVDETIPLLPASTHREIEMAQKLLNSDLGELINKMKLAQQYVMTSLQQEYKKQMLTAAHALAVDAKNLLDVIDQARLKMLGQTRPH
266 human kinases (Homo sapiens, UniProt Q16566), sequence (Q16566 whole entry): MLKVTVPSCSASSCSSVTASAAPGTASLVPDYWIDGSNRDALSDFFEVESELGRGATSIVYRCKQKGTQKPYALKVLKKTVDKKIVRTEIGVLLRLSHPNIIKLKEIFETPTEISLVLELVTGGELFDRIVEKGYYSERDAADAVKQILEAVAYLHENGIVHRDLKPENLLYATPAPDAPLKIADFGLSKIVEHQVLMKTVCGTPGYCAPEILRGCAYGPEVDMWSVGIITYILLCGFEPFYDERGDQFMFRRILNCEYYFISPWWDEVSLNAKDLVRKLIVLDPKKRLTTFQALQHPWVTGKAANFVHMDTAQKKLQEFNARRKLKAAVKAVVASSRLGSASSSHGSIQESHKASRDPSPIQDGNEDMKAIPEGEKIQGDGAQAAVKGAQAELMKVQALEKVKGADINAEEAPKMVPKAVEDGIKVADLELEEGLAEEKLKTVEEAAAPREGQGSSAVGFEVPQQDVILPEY
266 human kinases (Homo sapiens, UniProt P09619), sequence (P09619 33-1106): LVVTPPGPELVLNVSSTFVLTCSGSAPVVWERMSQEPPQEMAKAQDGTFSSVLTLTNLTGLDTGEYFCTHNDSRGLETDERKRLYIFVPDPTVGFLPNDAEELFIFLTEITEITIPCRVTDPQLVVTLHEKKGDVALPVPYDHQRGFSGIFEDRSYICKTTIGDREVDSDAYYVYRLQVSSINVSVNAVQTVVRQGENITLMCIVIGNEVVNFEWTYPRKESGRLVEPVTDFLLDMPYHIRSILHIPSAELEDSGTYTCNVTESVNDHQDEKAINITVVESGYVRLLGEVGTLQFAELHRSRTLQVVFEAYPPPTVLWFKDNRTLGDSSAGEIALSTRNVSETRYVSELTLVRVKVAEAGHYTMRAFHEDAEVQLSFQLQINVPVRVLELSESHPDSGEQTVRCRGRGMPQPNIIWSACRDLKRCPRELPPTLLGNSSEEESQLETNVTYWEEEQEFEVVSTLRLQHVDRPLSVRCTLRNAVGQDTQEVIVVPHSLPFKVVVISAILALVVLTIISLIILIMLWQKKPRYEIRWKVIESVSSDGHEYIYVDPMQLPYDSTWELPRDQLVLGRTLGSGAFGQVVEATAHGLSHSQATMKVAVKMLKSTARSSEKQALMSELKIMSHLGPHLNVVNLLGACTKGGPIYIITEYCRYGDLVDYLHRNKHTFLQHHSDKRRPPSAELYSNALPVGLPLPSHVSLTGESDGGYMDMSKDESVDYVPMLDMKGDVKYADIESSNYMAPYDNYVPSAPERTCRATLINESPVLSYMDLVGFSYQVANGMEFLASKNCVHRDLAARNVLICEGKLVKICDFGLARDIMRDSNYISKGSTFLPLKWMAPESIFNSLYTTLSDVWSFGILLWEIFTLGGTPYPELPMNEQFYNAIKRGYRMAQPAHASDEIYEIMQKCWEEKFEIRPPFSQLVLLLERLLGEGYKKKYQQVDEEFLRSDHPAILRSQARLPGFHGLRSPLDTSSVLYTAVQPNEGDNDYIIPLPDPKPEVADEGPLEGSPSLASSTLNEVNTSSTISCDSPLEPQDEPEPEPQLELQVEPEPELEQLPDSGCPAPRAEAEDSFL

Row | Sequence | % activity (266 human kinases [1]) [%] | % activity (266 human kinases [2]) [%] | % activity (266 human kinases [3]) [%] | % activity (266 human kinases [4]) [%] | % activity (266 human kinases [5]) [%] | % activity (266 human kinases [6]) [%] | % activity (266 human kinases [7]) [%]
1 | HRRIKAWLKKIKALARQLGVAA (mammal) [MMI-0500] | 40 | 10 | 45 | 94 | 3 | 51 | -1
2 | YARAAARQARAKALNRQLGVA (mammal) [MMI-0200] | 137 | 98 | 76 | 110 | 94 | 99 | 71
